In patent US20240376171A1 (Hoffmann-La Roche, published 2024):
Blank lines part the entries; values can stand above or below the binder they belong to.

Experiments:
[1] = target: T1, PD1 on activated human CD4 and CD8 T cells (human, UniProt Q15116 25-288); experiment: flow cytometry, CD3/CD28-activated human PBMCs gated on CD3+CD8+ T cells, FITC anti-mouse Fc secondary antibody; no Matriptase digestion described
T1 construct: whole, on cells; Endogenous PD1 on CD3/CD28-stimulated T cells; also called human PD1; PD1 receptor
Method: (§1) PBMCs were bought from Biomex from a healthy donor (Lot 5000899PB). The PBMCs were stimulated for 3 days with CD3 and CD28 to induce upregulation of PD1 on T cells. Therefore, PBMCs were seeded in medium (RPMI1640, 10% FCS, 2 mM Glutamine) into cell culture flasks that were coated for 1 h at 37° C. with 1 μg/ml CD3 (clone OKT3, 302914, BioLegend). CD28 was added in solution to the PBMCs at a concentration of 1 μg/ml (clone CD28.2, 302914, BioLegend). After three days, PBMCs were harvested and transferred into a 96 well round bottom plate (200′000 cells per well). The cells were washed with FACS buffer (PBS, 2% FBS, 5 mM EDTA, 0.025% NaN3) and stained with 30 μl of corresponding TA PD1-IL2v constructs in FACS buffer for 30 min at 4° C. The cells were washed twice with FACS buffer to remove unbound molecules. Then 30 μl of the diluted FITC anti-mouse Fc specific secondary antibody (1:50 dilution, 115-096-071, Jackson ImmunoResearch) or for the human constructs the diluted FITC anti-human Fc specific secondary antibody (1:50 dilution, 115-096-098, Jackson ImmunoResearch) was added to the cells. After 30 min incubation at 4° C. the cells were washed twice with FACS buffer. […] Finally the cells were resuspended in 150 μl FACs buffer and measured using a BD Fortessa gating on CD3+CD4+ cells (CD4 T cells) and CD3+CD8+ cells (CD8 T cells).

[2] = target: T1, PD1 on activated human CD4 and CD8 T …; experiment: flow cytometry, CD3/CD28-activated human PBMCs gated on CD3+CD4+ T cells, FITC anti-mouse Fc secondary antibody; no Matriptase digestion described
Method: as §1

[3] = target: T1, PD1 on activated human CD4 and CD8 T …; experiment: flow cytometry, CD3/CD28-activated human PBMCs gated on CD3+CD8+ T cells, FITC anti-human Fc secondary antibody; no Matriptase digestion described
Method: (§2) PBMCs were bought from Biomex from a healthy donor (Lot 5000899PB). The PBMCs were stimulated for 3 days with CD3 and CD28 to induce upregulation of PD1 on T cells. Therefore, PBMCs were seeded in medium (RPMI1640, 10% FCS, 2 mM Glutamine) into cell culture flasks that were coated for 1 h at 37° C. with 1 μg/ml CD3 (clone OKT3, 302914, BioLegend). CD28 was added in solution to the PBMCs at a concentration of 1 μg/ml (clone CD28.2, 302914, BioLegend). After three days, PBMCs were harvested and transferred into a 96 well round bottom plate (200′000 cells per well). The cells were washed with FACS buffer (PBS, 2% FBS, 5 mM EDTA, 0.025% NaN3) and stained with 30 μl of corresponding TA PD1-IL2v constructs in FACS buffer for 30 min at 4° C. The cells were washed twice with FACS buffer to remove unbound molecules. Then 30 μl of the diluted FITC anti-mouse Fc specific secondary antibody (1:50 dilution, 115-096-071, Jackson ImmunoResearch) or for the human constructs the diluted FITC anti-human Fc specific secondary antibody (1:50 dilution, 115-096-098, Jackson ImmunoResearch) was added to the cells. After 30 min incubation at 4° C. the cells were washed twice with FACS buffer. To detect T cells, PBMCs were stained with 30 μl of a mixture of CD3 PE/Cyanine7 (clone UCHT1, 300420, BioLegend), CD4 PE (clone RPA-T4, 300508, BioLegend) and CD8 APC (clone SK1, 344722, BioLegend) for 30 min at 4° C. The unbound antibodies were removed by washing twice with FACS buffer. Finally the cells were resuspended in 150 μl FACs buffer and measured using a BD Fortessa gating on CD3+CD4+ cells (CD4 T cells) and CD3+CD8+ cells (CD8 T cells).

[4] = target: T1, PD1 on activated human CD4 and CD8 T …; experiment: flow cytometry, CD3/CD28-activated human PBMCs gated on CD3+CD4+ T cells, FITC anti-human Fc secondary antibody; no Matriptase digestion described
Method: as §2

[5] = target: T1, PD1 on activated human CD4 and CD8 T …; experiment: flow cytometry, CD3/CD28-activated human PBMCs gated on CD3+CD8+ T cells, PE anti-human Fc secondary antibody; TA constructs pre-incubated with Matriptase, unmasked controls not
Method: (§3) Three formats of TA PD1-IL2v molecules and respective controls were assessed for their capacity to bind to activated PD1 positive CD8 T cells and CD4 T cells within PBMCs in comparison to the respective unmasked molecules.
(§4) PBMCs were purchased from Biomex from a healthy donor (Lot 5000729PB). The PBMCs were stimulated for three days with CD3 and CD28 to induce upregulation of PD1 on T cells. Therefore, PBMCs were seeded in medium (RPMI1640, 10% FCS, 2 mM Glutamine) into cell culture flasks that were coated for 1 hour at 37° C. with 1 μg/ml CD3 (clone OKT3, 302914, BioLegend). CD28 was added in solution to the PBMCs at a concentration of 1 μg/ml (clone CD28.2, 302914, BioLegend). After three days, PBMCs were harvested and transferred into a 96 well round bottom plate (200′000 cells per well). The cells were washed with FACS buffer (PBS, 2% FBS, 5 mM EDTA, 0.025% NaN3) and stained with 30 μl of corresponding TA PD1-IL2v constructs in FACS buffer for 30 min at 4° C. Prior to the staining, 20 μg of the TA PD1-IL2v constructs were digested with 4 μl Matriptase (Enzo ˜2.5 U/μl, ALX-201-246-U25, Lot 12152015, or without Matriptase for the unmasked controls) for 2 hours at 37° C. in 40 μl Matriptase buffer (50 mM Tris, 50 mM NaCl, 0.01% Tween 20, pH 9.0). After the staining, the cells were washed twice with FACS buffer to remove unbound molecules. Then 30 μl of the diluted PE anti-human Fc specific secondary antibody (1:50 dilution, 109-116-170, Jackson ImmunoResearch) was added to the cells. After 30 min incubation at 4° C. the cells were washed twice with FACS buffer. To detect T cells, PBMCs were stained with 30 μl of a mixture of CD3 PE/Cyanine7 (clone UCHT1, 300420, BioLegend), CD4 FITC (clone RPA-T4, 300528, BioLegend) and CD8 APC/Cyanine7 (clone HIT8a, 300926, BioLegend) for 30 min at 4° C. The unbound antibodies were removed by washing twice with FACS buffer. Finally the cells resuspended in 150 μl FACS buffer and measured using a BD Fortessa gating on CD3+CD4+ cells (CD4 T cells) and CD3+CD8+ cells (CD8 T cells).

[6] = target: T1, PD1 on activated human CD4 and CD8 T …; experiment: flow cytometry, CD3/CD28-activated human PBMCs gated on CD3+CD4+ T cells, PE anti-human Fc secondary antibody; TA constructs pre-incubated with Matriptase, unmasked controls not
Method: as §3, §4

T1 sequence (Q15116 25-288): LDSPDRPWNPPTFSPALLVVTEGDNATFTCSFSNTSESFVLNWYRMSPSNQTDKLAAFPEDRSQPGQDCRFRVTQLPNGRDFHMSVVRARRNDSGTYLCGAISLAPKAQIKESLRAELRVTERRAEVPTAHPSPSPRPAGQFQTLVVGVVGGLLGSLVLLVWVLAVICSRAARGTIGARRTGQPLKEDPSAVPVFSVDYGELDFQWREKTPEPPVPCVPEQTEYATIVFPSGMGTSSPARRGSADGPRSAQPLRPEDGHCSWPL

EC50 (read off the curve) [1]: ~2 nM | EC50 (read off the curve) [2]: ~2 nM
B1: murine TA PD1-IL2v, MT204, 2xPQARK, in line (antibody, mouse IgG1, kappa)
light: KIVLTQSPASLPVSLGQRATISCRASESVDTSDNSFIHWYQQRPGQSPKLLIYRSSTLESGVPARFSGSGSRTDFTLTIDPVEADDVATYYCQQNYDVPWTFGGGTKLEIKRADAAPTVSIFPPSSEQLTSGGASVVCFLNNFYPKDINVKWKIDGSERQNGVLNSWTDQDSKDSTYSMSSTLTLTKDEYERHNSYTCEATHKTSTSPIVKSFNRNEC
heavy 1: EVILVESGGGLVKPGGSLKLSCAASGFSFSSYTMSWVRQTPEKRLDWVATISGGGRDIYYPDSVKGRFTISRDNAKNTLYLEMSSLMSEDTALYYCVLLTGRVYFALDSWGQGTSVTVSSAKTTPPSVYPLAPGSAAQTNSMVTLGCLVKGYFPEPVTVTWNSGSLSSGVHTFPAVLQSDLYTLSSSVTVPSSTWPSQTVTCNVAHPASSTKVDKKIVPRDCGCKPCICTVPEVSSVFIFPPKPKDVLTITLTPKVTCVVVAISKDDPEVQFSWFVDDVEVHTAQTKPREEQINSTFRSVSELPIMHQDWLNGKEFKCRVNSAAFGAPIEKTISKTKGRPKAPQVYTIPPPKKQMAKDKVSLTCMITNFFPEDITVEWQWNGQPAENYKNTQPIMKTDGSYFVYSKLNVQKSNWEAGNTFTCSVLHEGLHNHHTEKSLSHSPG
heavy 2: EVILVESGGGLVKPGGSLKLSCAASGFSFSSYTMSWVRQTPEKRLDWVATISGGGRDIYYPDSVKGRFTISRDNAKNTLYLEMSSLMSEDTALYYCVLLTGRVYFALDSWGQGTSVTVSSAKTTPPSVYPLAPGSAAQTNSMVTLGCLVKGYFPEPVTVTWNSGSLSSGVHTFPAVLQSDLYTLSSSVTVPSSTWPSQTVTCNVAHPASSTKVDKKIVPRDCGCKPCICTVPEVSSVFIFPPKPKDVLTITLTPKVTCVVVAISKDDPEVQFSWFVDDVEVHTAQTKPREEQINSTFRSVSELPIMHQDWLNGKEFKCRVNSAAFGAPIEKTISKTKGRPKAPQVYTIPPPKEQMAKDKVSLTCMITNFFPEDITVEWQWNGQPAENYDNTQPIMDTDGSYFVYSDLNVQKSNWEAGNTFTCSVLHEGLHNHHTEKSLSHSPGGGGGSGGGGSGGGGGAPASSSTKKTQLQLEHLLLDLQMILNGINNYKNPKLTRMLTAKFAMPKKATELKHLQCLEEELKPLEEVLNGAQSKNFHLRPRDLISNINVIVLELKGSETTFMCEYADETATIVEFLNRWITFAQSIISTLTGGGGSGGGGSPQARKGGGGSGGGGSGGGGSGGGGSGGGEVQLVESGGGLVQPGGSLRLSCAASGFTFSSYTLAWVRQAPGKGLEWVAAIDSSSYTYSPDTVRGRFTISRDNAKNSLYLQMNSLRAEDTAVYYCARDSNWDALDYWGQGTTVTVSSGGGGSGGPQARKGGGGSGGGDIQMTQSPSSLSASVGDRVTITCKASQNVGTNVGWYQQKPGKAPKALIYSASFRYSGVPSRFSGSGSGTDFTLTISSLQPEDFATYYCQQYYTYPYTFGGGTKVEIK
notes: Murine surrogate: bivalent human PD1-targeted murine IgG DA PG with masked human IL2v in-line on the C-terminus of the Fc DD- chain, two PQARK sites; also called P1AG9983; P1AG9983-001

EC50 (read off the curve) [1]: ~2 nM | EC50 (read off the curve) [2]: ~2 nM
B2: murine PD1-IL2v, unmasked, in line (antibody, mouse IgG1, kappa)
light: B1 light
heavy 1: B1 heavy 1
heavy 2: EVILVESGGGLVKPGGSLKLSCAASGFSFSSYTMSWVRQTPEKRLDWVATISGGGRDIYYPDSVKGRFTISRDNAKNTLYLEMSSLMSEDTALYYCVLLTGRVYFALDSWGQGTSVTVSSAKTTPPSVYPLAPGSAAQTNSMVTLGCLVKGYFPEPVTVTWNSGSLSSGVHTFPAVLQSDLYTLSSSVTVPSSTWPSQTVTCNVAHPASSTKVDKKIVPRDCGCKPCICTVPEVSSVFIFPPKPKDVLTITLTPKVTCVVVAISKDDPEVQFSWFVDDVEVHTAQTKPREEQINSTFRSVSELPIMHQDWLNGKEFKCRVNSAAFGAPIEKTISKTKGRPKAPQVYTIPPPKEQMAKDKVSLTCMITNFFPEDITVEWQWNGQPAENYDNTQPIMDTDGSYFVYSDLNVQKSNWEAGNTFTCSVLHEGLHNHHTEKSLSHSPGGGGGSGGGGSGGGGGAPASSSTKKTQLQLEHLLLDLQMILNGINNYKNPKLTRMLTAKFAMPKKATELKHLQCLEEELKPLEEVLNGAQSKNFHLRPRDLISNINVIVLELKGSETTFMCEYADETATIVEFLNRWITFAQSIISTLT
notes: Murine surrogate: bivalent human PD1-targeted murine IgG DA PG with IL2v fused to the C-terminus of the Fc DD- chain (non-masked control); also called P1AG7552; P1AG7552-006

EC50 (read off the curve) [3]: ~2 nM | EC50 (read off the curve) [4]: ~2 nM | EC50 (read off the curve) [5]: ~0.8 nM | EC50 (read off the curve) [6]: ~0.7 nM
B3: human PD1-IL2v, unmasked, in line (antibody, human IgG1, kappa, L234A L235A)
light: DIVMTQSPDSLAVSLGERATINCKASESVDTSDNSFIHWYQQKPGQSPKLLIYRSSTLESGVPDRFSGSGSGTDFTLTISSLQAEDVAVYYCQQNYDVPWTFGQGTKVEIKRTVAAPSVFIFPPSDEQLKSGTASVVCLLNNFYPREAKVQWKVDNALQSGNSQESVTEQDSKDSTYSLSSTLTLSKADYEKHKVYACEVTHQGLSSPVTKSFNRGEC
heavy 1: EVQLLESGGGLVQPGGSLRLSCAASGFSFSSYTMSWVRQAPGKGLEWVATISGGGRDIYYPDSVKGRFTISRDNSKNTLYLQMNSLRAEDTAVYYCVLLTGRVYFALDSWGQGTLVTVSSASTKGPSVFPLAPSSKSTSGGTAALGCLVKDYFPEPVTVSWNSGALTSGVHTFPAVLQSSGLYSLSSVVTVPSSSLGTQTYICNVNHKPSNTKVDKKVEPKSCDKTHTCPPCPAPEAAGGPSVFLFPPKPKDTLMISRTPEVTCVVVDVSHEDPEVKFNWYVDGVEVHNAKTKPREEQYNSTYRVVSVLTVLHQDWLNGKEYKCKVSNKALGAPIEKTISKAKGQPREPQVCTLPPSRDELTKNQVSLSCAVKGFYPSDIAVEWESNGQPENNYKTTPPVLDSDGSFFLVSKLTVDKSRWQQGNVFSCSVMHEALHNHYTQKSLSLSPG
heavy 2: not shown
notes: Bivalent human PD1-targeted human IgG PG LALA with IL2v fused to the C-terminus of the Fc knob chain (non-masked control); also called P1AA7146; P1AA7146-006
